Test results published in patent US20250052767A1 (BIOLEGEND, published 2025).

Experiments:
human CD28 [1] = molecular target: T1, human CD28 (human, UniProt P10747 19-220, On cells CD28 is a disulfide linked homodimer and a glycoprotein; one copy of the chain is given.); assay: cell-based or functional assay
human CD28 [2] = molecular target: T1, human CD28; assay: cell-based or functional assay; remark: listed apart in the source
human CD28 [3] = molecular target: T1, human CD28; assay: flow cytometry, PE-conjugated antibody on un-fixed human peripheral blood cells
Method: (§1) Cells were left either un-fixed or were fixed with 4% PFA for 15 minutes and washed with PBS to remove PFA. Cells were then counted and adjusted in Cell Staining Buffer and stained with exemplary anti-CD28 antibodies conjugated to PE for 30 minutes in the dark. […] Data were acquired on a BD Canto II instrument, and analyzed by FlowJo.

human CD28 [4] = molecular target: T1, human CD28; assay: flow cytometry, PE-conjugated antibody on 4% PFA-fixed human peripheral blood cells
Method: as §1

human CD28 [5] = molecular target: T1, human CD28; assay: flow cytometry, PE-conjugated antibody on fresh human peripheral blood cells, CD3/CD28 gating
From the text: Cells were lysed with RBC lysis buffer, washed, and resuspended in Fluorofix solution (containing 1% PFA). Data were acquired on a BD Canto II instrument, and analyzed by FlowJo. […] A histogram was generated of each cell population to quantify median fluorescence intensity (MFI), and the MFI of each exemplary antibody and respective control was used to calculate the signal to noise (S:N) ratio (Table E2).

human CD28 [6] = molecular target: T1, human CD28; assay: flow cytometry, Ba/F3-human CD28 cells pre-incubated with 70 ug antibody, then 1 ug biotinylated recombinant CD86 (competitor) + labelled streptavidin
Method: After 15 minutes of incubation and wash, cells were incubated with PE-conjugated streptavidin. Data were acquired on a BD Canto II, and analyzed using FlowJo software.
This value was subtracted from 100 to get a reduction percentage.

T1 sequence (P10747 19-220 limits assumed): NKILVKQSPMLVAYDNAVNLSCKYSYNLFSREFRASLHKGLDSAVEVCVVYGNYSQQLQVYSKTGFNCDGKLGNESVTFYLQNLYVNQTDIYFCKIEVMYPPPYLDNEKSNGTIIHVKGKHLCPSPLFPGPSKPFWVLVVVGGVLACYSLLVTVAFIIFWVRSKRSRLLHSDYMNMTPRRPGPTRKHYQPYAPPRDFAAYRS

Binder | Division Index (with anti-CD3 UCHT1) (human CD28 [1]) | Expansion Index (with anti-CD3 UCHT1) (human CD28 [1]) | Percent Divided (CFSE T cell division, with plate-coated anti-CD3 UCHT1) (human CD28 [1]) [%] | Division Index (no anti-CD3) (human CD28 [2]) | Expansion Index (no anti-CD3) (human CD28 [2]) | Percent Divided (CFSE T cell division, no anti-CD3) (human CD28 [2]) [%] | S/N on un-fixed cells (human CD28 [3]) | S/N on fixed cells (human CD28 [4]) | % CD28+ population (human CD28 [5]) [%] | MFI CD28+ population (human CD28 [5]) | S/N Ratio (human CD28 [5]) | % Reduction (of CD86 binding) (human CD28 [6]) [%] | MFI (of CD86 binding after antibody pre-incubation) (human CD28 [6])
exemplary anti-CD28 antibody AB3 (antibody, V domains shown, Mouse hybridoma monoclonal antibody; Conjugated to PE in the staining assays; also called antibody 3; clone 3) VH: KVQLQQSGAGLVKPGASVKLSCKTSGYTFSDYIINWVKQRSGQGLEWIGWFYPGSGSINYNEKFKDKATLTADKSSSTVYMDLSRLTSEDSAVYFCARREDRGGYDAFDYWGQGTTLTVSS VL: DIQMTQSPASLSVSVGETVTITCRASENIYSNLAWYQQKQGKSPQLLVYAATKLADGVPSRFSGSGSGTQYSLRINSLQSEDFGSYYCQHFWGTPWTFGGGTKLEIK | 1.08 | 5.11 | 55.7 | 0.0056 | 1.01 | 0.32 | 133 | 101 | 65.7 | 15600 | 260 | 90.4 | 796
exemplary anti-CD28 antibody AB1 (antibody, V domains shown, Mouse hybridoma monoclonal antibody; also called antibody 1; clone 1) VH: QVHLQQSATELARPGASVKMSCKASGYTFTSYTMHWVKQRPGQGLEWIGYIDPGSGYSEFNHKFKDKSTLTADKSSSTAYMQLISLTSEDSAVYYCARRQDNSGYDSFDYWGQGTTLTVSS VL: DIQMTQSPASLSVSVGETVTITCRTSENIYSNLAWYQQKQGKSPQLLVYAATNLADGVSSRFSGSGSGIQYSLKINSLQSEDFGSYYCQHFWGIPWTFGGGTKLEIK | 0.8 | 4.03 | 42 | 0.0072 | 1.01 | 0.58 | 89.2 | 61.6 | 64.8 | 12600 | 212 | 91.1 | 736
exemplary anti-CD28 antibody AB4 (antibody, V domains shown, Mouse hybridoma monoclonal antibody; Conjugated to PE in the staining assays; also called antibody 4; clone 4) VH: EVQLQQSGPELEKPGASVKMSCKASGYSFTDYNMNWVKQSNGKSLEWIGIIDPYYGATTYNQRFKGKATLTVDKSSSTAYMQLKSLTSEDSAVYYCARFGFYGAMDYWGQGISVTVSS VL: DIQMTQSPASLSVSVGETVTITCRASENIYSNLAWYQQKQGKSPQLLVYAATKLADGVPSRFSGSGSGTQYSLRINSLQSEDFGSYYCQHFWGTPWTFGGGTKLEIK | 1.08 | 5.07 | 53.8 | 0.0002 | 1 | 0.0091 | 75.4 | 57.7 | 64.9 | 11900 | 193 | 92.1 | 657
exemplary anti-CD28 antibody AB6 (antibody, V domains shown, Mouse hybridoma monoclonal antibody; Conjugated to PE in the staining assays; also called antibody 6; clone 6) VH: KVQLQQSGAGLVKPGASVKLSCKTSGYTFSDYIINWVKQRSGQGLEWIGWFYPGSGSINYNEKFKDKATLTADKSSSTVYMDLSRLTSEDSAVYFCARREDRGGYDAFDYWGQGTTLTVSS VL: DIQMTQSPASLSVSVGETVTITCRASENIYSNLAWYQQKQGKSPQLLVYAATKLADGVPSRFSGSGSGTQYSLRINSLQSEDFGSYYCQHFWGTPWTFGGGTKLEIK | 1.32 | 6.04 | 65.8 | 0.0047 | 1.01 | 0.33 | 128 | 101 | 66 | 15500 | 249 | 91.1 | 741
exemplary anti-CD28 antibody AB7 (antibody, V domains shown, Mouse hybridoma monoclonal antibody; Conjugated to PE in the staining assays; also called antibody 7; clone 7) VH: KVQLQQSGAGLVKPGASVKLSCKASGYTFSDYIINWVKQRSGQGLEWIGWFYPGSGSINYNEKFKDKATLTADKSSSTVYMDLSRLTSEDSAVYFCARREDRGGYDAFDYWGQGTTLTVSS VL: DIQMTQSPASLSVSVGETVTITCRTSENIYSNLAWYQQKQGKSPQLLVYAATKLADGVPSRFSGSGSGTQYSLRINSLQPEDFGSYYCQHFWGTPWTFGGGTKLEIK | 0.96 | 4.82 | 48 | 0.014 | 1.03 | 0.47 | 130 | 108 | 64.8 | 16200 | 249 | 88.5 | 955
exemplary anti-CD28 antibody AB5 (antibody, V domains shown, Mouse hybridoma monoclonal antibody; Conjugated to PE in the staining assays; also called antibody 5; clone 5) VH: EVQLQQSGPELEKPGASVKMSCKASGYSFTDYNMNWVKQSNGKSLEWIGIIDPYYGATTYNQRFKGKATLTVDKSSSTAYMQLKSLTSEDSAVYYCARFGFYGAMDYWGQGISVTVSS VL: DVVVTQTPLSLPVSFGDQVSISCRSSQSLANSFGNTYLSWYLHKPGQSPQLLIYGISNRFSGVPDRFSGSGSGTDFTLKISTIKPEDLGVYYCLQGTHQPFTFGSGTTLELK | 1.17 | 5.39 | 60.5 | 0.0082 | 1.01 | 0.64 | 94.5 | 63.3 | 64.7 | 12500 | 195 | 91.9 | 668
exemplary anti-CD28 antibody AB8 (antibody, V domains shown, Mouse hybridoma monoclonal antibody; Conjugated to PE in the staining assays; also called antibody 8; clone 8) VH: EVKLVESGGGLVQPGGSLKLSCAASGFTFSSYTMSWVRQTPEKRLEWVAYISNGGGTTYYPDTVKGRFTISRDNAKNTLYLQMSSLKSEDTAVYYCARHRPYDYDVLDYWGQGTTLTVSS VL: DIVMTQSQKFMSTSVGDRVSITCKASQIVGTDVAWYQQKPGQSPKILIFSASNRYTGVPDRFTGSGSGTDFTLTISNMQSEDLADYFCHQYSRYPYTFGGGTKLEIK | 0.76 | 3.51 | 40 | 0.62 | 2.85 | 30.7 | 30.9 | 24.6 | 65 | 5210 | 83.2 | 88.8 | 925
exemplary anti-CD28 antibody AB2 (antibody, V domains shown, Mouse hybridoma monoclonal antibody; also called antibody 2; clone 2) VH: QVQLQQPGSELMRPGASVKLSCKASGYTFTSYWMHWVKQRHGQGLEWIGNIYPGSGRTIYDEKFKSKATLTVDTSSSTAYMHLSSLTSEDSAVFYCTRSHYGSSFDAMDYWGQGTSVTVSS VL: DIQVNQSPSSLSASLGDTITITCHASQNIYVWLNWYQQKPGNIPKLLIYKASNLHTGVPSRFSGSGSGTGFTLTISSLQPEDIATYYCQQGQSYPWTFGGGTKLEIK | 0.99 | 4.56 | 44 | 1.49 | 6.13 | 65.4 | 89 | 50.1 | 64.2 | 13100 | 207 | 91.4 | 714
